The source of these data is paper PMC9839713, “Arabidopsis DXO1 activates RNMT1 to methylate the mRNA guanosine cap” (Nature Communications, 2023).

The assay deals with T1, His-DXO1 (Arabidopsis thaliana, UniProt Q8RY73 1-544).
T1 construct: also called His-tagged DXO1; source: E. coli BL21 Rosetta, purified (Ni-NTA); not shown: His6, N-terminal, kept
Briefly: pull-down; GST pull-down: 2 ug GST-RNMT1 with His-DXO1 or His-cDXO1 on GST agarose beads, 20 mM Tris-HCl pH 7.5, 100 mM NaCl, 1 mM DTT, 1 mM EDTA, 1 h; in the presence of RNase A; eluted with 10 mM GSH; blots with anti-His and anti-GST. Conditions: both partners purified.

T1 sequence (Q8RY73 whole entry): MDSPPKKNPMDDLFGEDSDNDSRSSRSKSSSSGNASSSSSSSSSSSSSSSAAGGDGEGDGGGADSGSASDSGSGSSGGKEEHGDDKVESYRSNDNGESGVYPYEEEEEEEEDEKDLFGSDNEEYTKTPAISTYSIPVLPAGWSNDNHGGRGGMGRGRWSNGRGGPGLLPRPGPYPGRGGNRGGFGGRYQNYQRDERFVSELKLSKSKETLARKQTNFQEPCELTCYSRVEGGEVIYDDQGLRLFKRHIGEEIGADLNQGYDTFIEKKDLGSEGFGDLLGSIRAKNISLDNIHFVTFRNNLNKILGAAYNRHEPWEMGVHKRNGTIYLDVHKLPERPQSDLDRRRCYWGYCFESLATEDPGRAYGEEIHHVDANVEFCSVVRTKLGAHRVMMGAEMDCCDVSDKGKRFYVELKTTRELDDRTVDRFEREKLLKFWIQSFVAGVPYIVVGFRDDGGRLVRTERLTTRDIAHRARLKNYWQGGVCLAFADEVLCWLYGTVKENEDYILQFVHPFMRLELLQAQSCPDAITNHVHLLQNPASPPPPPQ

B1: GST-RNMT1 (natural protein, Arabidopsis thaliana, UniProt Q9LHQ7 1-370, looked up)
chain: MKRGFSDSPSSSAPPPSSRFKSNPEGDSQFLEDETTKNFARKVADHYSRRTNQTLEEREASPIIHLKKLNNWIKSVLIQLYARPDDAVLDLACGKGGDLIKWDKARIGYYVGIDIAEGSIEDCRTRYNGDADHHQRRKKFSFPSRLLCGDCFEVELDKILEEDAPFDICSCQFAMHYSWTTEARARRALANVSALLRPGGVFIGTMPDANVIIKKLREAEGLEIGNSVYWIRFGEEYSQKKFKSSSPFGIEYVFHLEDAVDCPEWIVPFNVFKSLAEEYDLELVFVKNSHEFVHEYMKKPEFVELMRRLGALGDGSNDQSTLSADEWEAAYLYLSFVLRKRGESDGARRSGRRKNGKMNLSKDDVLYIDS
notes: The methods name a 'GST-DXO1' fusion in pGEX-4T-1 and RNMT1 in pET28a, while results, legend and pull-down methods use GST-RNMT1; In the functional rows the RNMT1 was the recombinant protein from pET28a (6X His); also called GST-tagged RNMT1; source: E. coli BL21 Rosetta, purified (GST agarose beads); not shown: GST, N-terminal, kept
On to B1, for which the binding result is “binds”.
